Measured values as given in patent US20240002498A1 (TENEOBIO, published 2024).

Tests used:
cyno FOLR1 on CHO cells = target: T1, cyno FOLR1 on CHO cells (cyno (Cynomolgus macaque), UniProt A0A2K5U044 25-234); test: flow cytometry, CHO cells stably expressing cyno FOLR1
T1 construct: whole, on cells; also called cyFOLR1

[1] = target: T2, human Folate Receptor Alpha (FOLR1) on cells (human, UniProt P15328 25-234); test: flow cytometry, CHO cells stably expressing human FOLR1
T2 construct: whole, on cells; Endogenous on IGROV-1, OVCAR-3, SKOV-3, HT-29 cells; transfected on CHO cells; the cell is named under assay; also called FRα; FRa
T2 sequence (P15328 25-234): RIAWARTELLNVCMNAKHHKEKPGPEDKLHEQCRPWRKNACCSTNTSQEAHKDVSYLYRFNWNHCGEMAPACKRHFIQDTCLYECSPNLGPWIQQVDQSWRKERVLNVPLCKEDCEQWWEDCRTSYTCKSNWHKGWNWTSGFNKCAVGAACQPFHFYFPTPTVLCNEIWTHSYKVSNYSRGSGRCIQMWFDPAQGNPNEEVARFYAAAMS

T1 sequence (A0A2K5U044 entry or part of it): as the sequence (P15328 25-234) above, with I2T, W4R, R37K, A146P, H171Y counted along it

| fold over background MFI (cyno FOLR1 on CHO cells) [fold over background] | fold over background MFI [1] [fold over background] | Binder |
| --- | --- | --- |
| 21.7 | 1410 | anti-FOLR1 heavy chain antibody (HCAb, UniAb) clone ID 358656 (antibody, V domains shown, Heavy chain-only antibody (no light chain), F18 family) VH: EVQLVESGGGLVQPGGSLRLSCAASGFSFSSYSMNWVRQAPGKGLEWVSYISSSSDTIEYADSVKGRFTISRDNAKNSLYLQMNSLRDEDTAVYYCASVGLDFDYRGQGTLVTVSS |
| 1060 | 1710 | anti-FOLR1 heavy chain antibody (HCAb, UniAb) clone ID 358626 (antibody, V domains shown, Heavy chain-only antibody (no light chain), F18 family) VH: EVQLVESGGGLVKPGGSLRLSCAASGFSFSSYSMKWVRQAPGKGLEWVSYISSSSDTIEYADSVKGRFTISRDNAKNSLYLQMNSLRDDDTAVYYCASVGLDFDYRGQGTLVTVSS |
| 933 | 1670 | anti-FOLR1 heavy chain antibody (HCAb, UniAb) clone ID 358624 (antibody, V domains shown, Heavy chain-only antibody (no light chain), F18 family) VH: EVQLVESGGGLVQPGGSLRLSCAASGFSFSSYSMKWVRQAPGKGLEWVSYISSSSDTIEYADSVKGRFTISRDNAKNSLYLQMNSLRDDDTAVYYCASVGLDFDYRGQGTLVTVSS |
| 729 | 1470 | anti-FOLR1 heavy chain antibody (HCAb, UniAb) clone ID 358664 (antibody, V domains shown, Heavy chain-only antibody (no light chain), F18 family) VH: EVQLVESGGGLVQPGGSLRLSCAASGFSFSSYSMKWVRQAPGKGLDWVSYISSSSDTIEYADSVKGRFTISRDNAKNSLYLQMNSLRDEDTAVYYCASVGLDFDYRGQGTLVTVSS |
| 3 | 920 | anti-FOLR1 heavy chain antibody (HCAb, UniAb) clone ID 358647 (antibody, V domains shown, Heavy chain-only antibody (no light chain), F18 family) VH: EVQLVESGGGLVQPGGSLRLSCAASGFSFSSYSMNWVRQAPGKGLEWISYISGSSDTIEYADSVKGRFTISRDNAKNSLYLQMNSLRAEDTAVYYCASVGLDFDYRGQGTLVTVSS |
| 590 | 926 | anti-FOLR1 heavy chain antibody (HCAb, UniAb) clone ID 358655 (antibody, V domains shown, Heavy chain-only antibody (no light chain), F18 family) VH: EVQLVESGGGLVQPGGSLRLSCAASGFTFSSYSMKWVRQAPGKGLEWISYISGSSDTIEYADSVKGRFTISRDNAKNSLYLQMNGLRDEDTAVYYCASVGLDFDYRGQGTLVTVSS |
| 1340 | 1960 | anti-FOLR1 heavy chain antibody (HCAb, UniAb) clone ID 358596 (antibody, V domains shown, Heavy chain-only antibody (no light chain), F18 family) VH: EVQLVESGGGLVQPGGSLRLSCAASGFTFSSYSMKWVRQAPGKGLEWVSYIDSSSSIIEYADSVKGRFTISRDNAKNSLYLQMNSLRDEDTAVYYCASVGLDFDYRGQGTLVTVSS |
| 717 | 980 | anti-FOLR1 heavy chain antibody (HCAb, UniAb) clone ID 358676 (antibody, V domains shown, Heavy chain-only antibody (no light chain), F18 family) VH: EVQLVESGGGLVQPGGSLRLSCAASGFSFSSYSMKWVRQAPGKGLEWVSYISSSSDTIEYADSVKGRFTISRDNAKNSLYLQMNSLRAEDTAVYYCASVGLDFDYRGQGTLVTVSS |
| 535 | 1280 | anti-FOLR1 heavy chain antibody (HCAb, UniAb) clone ID 358608 (antibody, V domains shown, Heavy chain-only antibody (no light chain), F18 family) VH: EVQLVESGGGLVQPGGSLRLSCAASGFSFSSYSMKWVRQAPGKGLEWISYISGSSDTIEYADSVKGRFTISRDNAKNSLYLQMNSLRDEDTAVYYCASVGLDFDYRGQGTLVTVSS |

The remaining lines, values behind:

| Binder | fold over background MFI (cyno FOLR1 on CHO cells) [fold over background] | fold over background MFI [1] [fold over background] |
| --- | --- | --- |
| anti-FOLR1 heavy chain antibody (HCAb, UniAb) clone ID 358590 (antibody, V domains shown, Heavy chain-only antibody (no light chain), F18 family) VH: EVQLVESGGGLVQPGGSLRLSCAASGFTFSSYSMNWVRQAPGKGLEWVSYISSSSDTIEYADSVKGRFTISRDNAKNSLYLQMNSLRDEDTAVYYCASVGLDFDYRGQGTLVTVSS | 21.8 | 1570 |
| anti-FOLR1 heavy chain antibody (HCAb, UniAb) clone ID 358393 (antibody, V domains shown, Heavy chain-only antibody (no light chain), F14 family) VH: EVQLVESGGGLVQPGGSLRLSCAASGFTFSSYSMNWARQAPGKGLEWVSYISSSSSSIYYADSVKGRFTISRDNAKNSLYLQMNSLRAEDTAVYYCARDVTSGIAAAGSAFNIRGQGTLVTVSS | 1.2 | 402 |
| anti-FOLR1 heavy chain antibody (HCAb, UniAb) clone ID 358456 (antibody, V domains shown, Heavy chain-only antibody (no light chain), F14 family) VH: EVQLVESGGGLVKPGGSLRLSCAASGFIFSSYSMNWVRQAPGKGLEWVSSISSGSSYIYYADSVKGRFTISRDNAKNSLYLQMNSLRAEDTAVYFCARDVTSGIAAAGSAFNIRGQGTLVTVSS | 2090 | 1870 |
| anti-FOLR1 heavy chain antibody (HCAb, UniAb) clone ID 358441 (antibody, V domains shown, Heavy chain-only antibody (no light chain), F14 family) VH: EVQLVESGGGLVQPGGSLRLSCAASGFSFSSYSMNWVRQAPGKGLEWVSSISSGSSYIYYADSVKGRFTISRDNAKNSLYLQMNSLRGEDTAVYYCARDVTSGIAAAGSAFNIRGQGTLVTVSS | 2300 | 1900 |
| anti-FOLR1 heavy chain antibody (HCAb, UniAb) clone ID 358396 (antibody, V domains shown, Heavy chain-only antibody (no light chain), F14 family) VH: EVQLVESGGGLVKPGGSLRLSCAASGFTFSSYSMNWVRQAPGKGLEWVSSISSSSSYIYYADSVKGRFTISRDNAKNSLYLQMNSLRAEDTAVYFCARDVTSGIAAAGSAFNIRGQGTLVTVSS | 360 | 1730 |
| anti-FOLR1 heavy chain antibody (HCAb, UniAb) clone ID 358446 (antibody, V domains shown, Heavy chain-only antibody (no light chain), F14 family) VH: EVQLVESGGGLVKPGGSLRLSCAASGFIFSSYSMNWVRQAPGKGLEWVSSISSGSSYIYYADSVKGRFTISRDDAKNSLYLQMNSLRAEDTAVYFCARDVTSGIAAAGSAFNIRGQGTLVTVSS | 1.5 | 1270 |
| anti-FOLR1 heavy chain antibody (HCAb, UniAb) clone ID 358416 (antibody, V domains shown, Heavy chain-only antibody (no light chain), F14 family) VH: EVQLVESGGGLVKPGGSLRLSCAASGFTFSSYTMNWVRQAPGKGLEWVSSISSGSSYIYYADSVKGRFTISRDNAKNSLYLQMNSLRAEDTAVYYCARDVTSGIAAAGSAFNIRGQGTLVTVSS | 1820 | 1870 |
| anti-FOLR1 heavy chain antibody (HCAb, UniAb) clone ID 358468 (antibody, V domains shown, Heavy chain-only antibody (no light chain), F14 family) VH: EVQLVESGGGLVKPGGSLRLSCAASGFTFSSYSMNWVRQAPGKGLEWVSSISSSSSYIYYADSVKGRFTISRDNAKNSLYLQMNSLRAEDTAVYYCARDVTSGIAAAGSAFNIRGQGTLVTVSS | 314 | 1670 |
| anti-FOLR1 heavy chain antibody (HCAb, UniAb) clone ID 358397 (antibody, V domains shown, Heavy chain-only antibody (no light chain), F14 family) VH: EVQLVESGGGLVKPRGSLRLSCEASGFTFSSYSMNWVRQAPGKGLEWVSSISSGSSYIYYADSVKGRFTISRDNAKNSLYLQMNSLRAEDTAVYYCARDVTSGIAAAGSAFNIRGQGTLVTVSS | 331 | 277 |
| anti-FOLR1 heavy chain antibody (HCAb, UniAb) clone ID 358418 (antibody, V domains shown, Heavy chain-only antibody (no light chain), F14 family) VH: EVQLVESGGGLVQPGGSLRLSCAASGFTFSSYSMNWVRQAPGKGLEWVSSISSGSSYIYYADSVKGRFTISRDNAKNSLYLQMNSLRAEDTALYYCARDVTSGIAAAGSAFNIRGQGTLVTVSS | 2080 | 1500 |
| anti-FOLR1 heavy chain antibody (HCAb, UniAb) clone ID 358462 (antibody, V domains shown, Heavy chain-only antibody (no light chain), F14 family) VH: EVQLVESGGGLVQPGGSLRLSCAASGFTFSSYSMNWVRQAPGKGLEWVSSISSGSSYIYYADSVKGRFTISRDNAKNSLYLQMNSLRAEDTAVYYCARDVTSGIAAAGSAFNIRGQGTLVTVSS | 2580 | 2150 |
| anti-FOLR1 heavy chain antibody (HCAb, UniAb) clone ID 358420 (antibody, V domains shown, Heavy chain-only antibody (no light chain), F14 family) VH: EVQLVESGGGLVKPGGSLRLSCAASGFTFSSYSMNWVRQAPGKGLEWVSSISSGSSYIYYADSVKGRFTISRDNANNSLYLQMNSLRAEDTAVYFCARDVTSGIAAAGSAFNIRGQGTLVTVSS | 2260 | 1760 |
| anti-FOLR1 heavy chain antibody (HCAb, UniAb) clone ID 358442 (antibody, V domains shown, Heavy chain-only antibody (no light chain), F14 family) VH: EVQLVESGGGLVKPGGSLRLSCAASGFTFSSYSMNWVRQAPGKGLEWVSYISSSSSYIYYADSVKGRFTISRDNAKNSLYLQMNSLRAEDTAVYYCARDVTSGIAAAGSAFNIRGQGTLVTVSS | 1.2 | 1600 |
| anti-FOLR1 heavy chain antibody (HCAb, UniAb) clone ID 358413 (antibody, V domains shown, Heavy chain-only antibody (no light chain), F14 family) VH: EVQLVESGGGLVQPGGSLRLSCAASGFSFSSYSMNWVRQAPGKGLEWVSSISSSSSYIYYADSVKGRFTISRDNSKNTLYLQMNSLRAEDTAVYYCARDVTSGIAAAGSAFNIRGQGTLVTVSS | 497 | 1810 |
| anti-FOLR1 heavy chain antibody (HCAb, UniAb) clone ID 358466 (antibody, V domains shown, Heavy chain-only antibody (no light chain), F14 family) VH: EVQLVESGGGLIQPGGSLRLSCAASGFTFSSYSMNWVRQAPGKGLEWVSSISSGSSYIYYADSVKGRFTISRDNAKNSLYLQMNSLRAEDTAVYYCARDVTSGIAAAGSAFNIRGQGTLVTVSS | 2090 | 1600 |
| anti-FOLR1 heavy chain antibody (HCAb, UniAb) clone ID 358480 (antibody, V domains shown, Heavy chain-only antibody (no light chain), F14 family) VH: EVQLVESGGGLVKPGGSLRLSCAASGFTFSSYSMNWVRQAPGKGLEWVSSISSGSTYIYYADSVKGRFTISRDNAKNSLYLQMNSLRAEDTAVYYCARDVTSGIAAAGSAFNIRGQGTLVTVSS | 1200 | 2140 |
| anti-FOLR1 heavy chain antibody (HCAb, UniAb) clone ID 358464 (antibody, V domains shown, Heavy chain-only antibody (no light chain), F14 family) VH: EVQLVESGGGLVQPGGSLRLSCAASGFTFSSYSMNWVRQAPGKGLEWVSYISSSSSTIYYADSVKGRFTISRDNAKNSLYLQMNSLRAEDTAVYYCARDVTSGIAAAGSAFNIRGQGTLVTVSS | 6.4 | 2100 |
| anti-FOLR1 heavy chain antibody (HCAb, UniAb) clone ID 358399 (antibody, V domains shown, Heavy chain-only antibody (no light chain), F14 family) VH: EVQLVESGGGLVKPGGSLRLSCVASGFTFSSYSMNWVRQAPGKGLEWVSSISSSSSYIYYADSVKGRFTISRDNAKNSLYLQMNSLRAEDTAVYYCARDVTSGIAAAGSAFNIRGQGTLVTVSS | 330 | 2010 |
| anti-FOLR1 heavy chain antibody (HCAb, UniAb) clone ID 358478 (antibody, V domains shown, Heavy chain-only antibody (no light chain), F14 family) VH: EVQLVESGGGLIQPGGSLRLSCAASGFIFSSYSMNWVRQAPGKGLEWVSYISSSSSYIYYADSVKGRFTISRDNAKNSLYLQMNSLRAEDTAVYYCARDVTSGIAAAGSAFNIRGQGTLVTVSS | 1.1 | 427 |
| anti-FOLR1 heavy chain antibody (HCAb, UniAb) clone ID 358452 (antibody, V domains shown, Heavy chain-only antibody (no light chain), F14 family) VH: EVQLVESGGGLVQPGGSLRLSCAASGFTFSSYSMNWVRQAPGKGLEWVASISSGSSDIYYADSVKGRFTISRDNAKNSLYLQMNSLRAEDTAVYYCARDVTSGIAAAGSAFNIRGQGTLVTVSS | 1.7 | 1840 |
